Reference: the DeepSol protein solubility set

assay: soluble on expression in E. coli; label from the status in PepcDB or PDB records

Row | Sequence | soluble on expression in E. coli
1 | GPGSMQEERERAERSKLLREEHDFWVEFRDRERAERLKYMTEQEIVELLQREADEATRESNRADQLHQRAMEDALRRRHITADVQRGGEDTVLARRKGEVQVDGIRLAAERETSVMVGAMTVAERTRRAGVERQQREEDLTAKCQQLMTELEEARASATRAQRYQKRAEDDLTREQENTRKEQSDAAACKETNDKLLKELAEVRQQLTASEAERKKAEAAKVQAAREVAQKEKELTCLRKRDDELAAQQASQKAAAEDEKQRAFTFQEELKTYRDALEKEQAARNRAETELAALREQAKTLEAKVAAASAPDPKQVADNMRKLKAVADDARKAQADLVKERQARESAEAAAVEARDALAKEQAVREKVEKEAQRALAASSVSVLHVQKAESDRKKLAEAEKKLEEMRRARNRDEVEKAALKREMEKVKRDLEGEASARAQFEQLASQAVSADDRVPQREVDQLRKALQISQEQCNAARRDTVACQQNAAREIALLKAWCERLQQQHRMQQQVLQSDEEFTPRTATPTPHCRTPRSVRKRIPQDLVADQRQAEEKAASDQRIRELEAHVTRLQVDLGRSKDQERRAIAGAEQARKALEASTATSMPDSGKASPGPSERGIAKEQEAKERAMVQRLNALERECAEAQKKYDDLVVAHRQSEAARCEAELQVAAQRAQIEQRQREEPQSYTSALGNYETSRLEPISATAGESTSALEERIKELERHLAEERAARQAAERRAEESQKLCAAPGTDAMSAAKRAEANVSSSGAGAKGKPQKVKSACC | not soluble
2 | SRRRPLSCDAASQAGSNYPRCWNCGGPWGPGREDRFFCPQCRALQAPDPTRDYFSLMDCNRSFRVDTAKLQHRYQQLQRLVHPDFFSQRSQTEKDFSEKHSTLVNDAYKTLLAPLSRGLYLLKLHGIEIPERTDYEMDRQFLIEIMEINEKLAEAESEAAMKEIESIVKAKQKEFTDNVSSAFEQDDFEEAKEILTKMRYFSNIEEKIKLKKIPL | soluble
3 | MEKKTIVLGVIGSDCHAVGNKILDHSFTNAGFNVVNIGVLSSQEDFINAAIETKADLICVSSLYGQGEIDCKGLREKCDEAGLKGIKLFVGGNIVVGKQNWPDVEQRFKAMGFDRVYPPGTSPETTIADMKEVLGVE | soluble
4 | MPRGYKNPRVVPDNVERVISAYTPVPGTLAWGVVWEDPFAEFVRECARDLGLPATASDDVIRGNLRLIASFVAWVIHEYDCPLRRDEIFDYILAEAYAMSVIYVRDGHGKGTSNKVRGIRRSMLTKIGWKMNKHFGEPHKHTLPQEGALEPYKQWQLNKVDAWAGSQPNERRRRNARVAIALALGAGLRTSEIAGLTADDCEVTDSGMVLIHAPGYRGGEPRITVVDHRFEDTITDRLAELADLRAAGEPGQYLYCPHLLGRTTDMVNDYMKKKITSSGADCYLQPDLRRLRNTWITGHIKAGVEEGAICQAAGLKSLNQFRDLVDEAAKARAEQSYARLRGGEHRPVLRLVQG | not soluble
5 | MGSDKIHHHHHHMSQTLLPPGWVEKLCDPYAVLGISVIADDRQIFKRYHTLAKLLHPDRHAKNCNPDQKLATAIFSHLINPAYQQLKHRQKRLIAIAMLRSDARVSEQKPLSSQSAIAQEIMKMSTPEAELFYEEAIACYAEAQYKSLDQFYQVTQQITILNLVYLRLHKPDLFLPQKAVAIIPEVEVNPVELTLTDVKPVLTNYAQRHYQRAIEYVRLGKWVIAVQELRDAIKLEPNNSDYYALLGLVHLKQKFMGMARVYICQALKLNPQNSLALKYAPELKIKLGENTNPKSMAKAVSIAALLSRFTQRKGSQVKC | not soluble
6 | MGSDKIHHHHHHMSPRKPRSPTAPNSSASIAPIPRLMPKLFVLDSNVLMHDPTSLFRFQEHDIYITMTTLEELDNNKKGMSEVARNARQTSRFLDEIVSSAITDIDEGISLQLHGTKNATGRLFLQTQAITNVLPVYLASGSADNQIIGAVKFLHDTHQNRVVTLVSKDINMRIKARALGLAAEDYFNDKVLEDTDVLFSGIQELPEDFWDEHGKDMESWQQSGQTFYRVTGPLAGGFVINQFVYLEHDKPFYAQVKETSGRTAVLQTLKDYTHQKNNVWGITARNREQNFAFNLLMNPEVDFVTLLGQAGTGKTLLTLAAGLMQTLEHKVYSEIIMTRVTVPVGEDIGFLPGTEEEKMTPWMGALEDNLDVLNKTDSSAGEWGRAATLDLIRSRIKIKSLNFMRGRTFINKFLIIDEAQNLTPKQMKTLITRAGPATKVVCLGNIAQIDTPYLSEGSSGLTYVVDRFKGWNHSGHVTLQRGERSRLADYAAEIL | not soluble
7 | MVPSTFSRLKAARCLPVVLAALIFVGCGTHTPDQSTAYMQGTAQADSAFYLQQMQQSSDDTRINWQLLAIRALVKEGKTGQAVELFNQLPQELNDSQRREKTLLAVEIKLAQKDFAGAQNLLAKITPADLEQNQQARYWQAKIDASQGRPSIDLLRALIAQEPLLGAKEKQQNIDATWQALSSMTQEQANTLVINADENILQGWLDLQRVWFDNRNDPDMMKAGIADWQKRYPNNPGAKMLPTQLVNVKAFKPASTNKIALLLPLNGQAAVFGRTIQQGFEAAKNIGTQPVAAQVAAAPAADVAEQPQPQTADGVASPAQASVSDLTGDQPAAQPVPVSAPATSTAAVSAPANPSAELKIYDTSSQPLSQILSQVQQDGASIVVGPLLKNNVEELLKSNTPLNVLALNQPENIENRVNICYFALSPEDEARDAARHIRDQGKQAPLVLIPRSSLGDRVANAFAQEWQKLGGGTVLQQKFGSTSELRAGVNGGSGIALTGTPITPRATTDSGMTTNNPTLQTTPTDDQFTNNGGRVDAVYIVATPGEIAFIKPMIAMRNGSQSGATLYASSRSAQGTAGPDFRLEMEGLQYSEIPMLAGGNLPLMQQALSAVNNDYSLARMYAMGVDAWSLANHFSQMRQVQGFEINGNTGSLTANPDCVINRKLSWLQYQQGQVVPAS | soluble
8 | NSLTTHYRRSQLIALPVPGGKAKVEYCYAVNVPGDREIVTHSFAEWAVGDFNRQKETVLCDKLTAGSKITTECPSESFVGSRKHNGLSTSAKVMSMNASARSNSFVVNSGK | not soluble
9 | MSPAITRKRFIAGAVCPACSEQDKIQMWEEDGVPHRECVACGYADTLNAQGQSIPKELGTRVNQNAPKPANPKVQSVQFFPNPKLKKKPDA | not soluble
10 | MDSRTKGKTVMEVGGDGVAVITLINPPVNSLSFDVLYNLKSNYEEALSRNDVKAIVITGAKGRFSGGFDISGFGEMQKGNVKEPKAGYISIDIITDLLEAARKPSVAAIDGLALGGGLELAMACHARISAPAAQLGLPELQLGVIPGFGGTQRLPRLVGLTKALEMILTSKPVKAEEGHSLGLIDAVVPPAELVTTARRWALDIVGRRKPWVSSVSKTDKLPPLGEAREILTFAKAQTLKRAPNMKHPLMCLDAIEVGIVSGPRAGLEKEAEVASQVVKLDTTKGLIHVFFSQRGTAKVPGVTDRGLVPRKIKKVAIIGGGLMGSGIATALILSNYPVILKEVNEKFLEAGIGRVKANLQSRVRKGSMSQEKFEKTMSLLKGSLDYESFRDVDMVIEAVIENISLKQQIFADLEKYCPQHCILASNTSTIDLNKIGERTKSQDRIVGAHFFSPAHIMPLLEIVRTNHTSAQVIVDLLDVGKKIKKTPVVVGNCTGFAVNRMFFPYTQAAMFLVECGADPYLIDRAISKFGMPMGPFRLCDLVGFGVAIATATQFIENFSERTYKSMIIPLMQEDKRAGEATRKGFYLYDDKRKAKPDPELKKYIEKARSISGVKLDPKLANLSEKDIIEMTFFPVVNEACRVFAEGIAVKAADLDIAGIMGMGFPPYRGGIMFWADSIGSKYIYSRLDEWSKAYGEFFKPCAFLAERGSKGVLLSAPVKQASSRL | soluble
11 | MEDIKIKEIFENIYEVDLGDGLKRIATKSIVKGKKVYDEKIIKIGDEEYRIWNPNKSKLAAAIIKGLKVMPIKRDSKILYLGASAGTTPSHVADIADKGIVYAIEYAPRIMRELLDACAERENIIPILGDANKPQEYANIVEKVDVIYEDVAQPNQAEILIKNAKWFLKKGGYGMIAIKARSIDVTKDPKEIFKEQKEILEAGGFKIVDEVDIEPFEKDHVMFVGIWEGK | soluble
12 | MAHHHHHHMGADIKLLLIDFDGTLFVDKDIKVPSENIEAIKEAIEKGYMVSICTGRSKVGILSAFGEENLKKMNFYGMPGVYINGTIVYDQIGYTLLDETIETDVYAELISYLVENNLVNQTIFHRGESNYVTEDNKYSDFLQKMYSENRSIIIRHNEMLKYRTMNKLMIVLDPSESKTVIGNLKQKFKNKLTIFTTYNGHAEVNKLGHDKYTGINYLLKHYNISNDQVLVVGDAENDIAMLSHFKYSFAVANATNSAKSHAKCVLPLSHKEGAVAYLLKKVFDLKK | not soluble
13 | MLRVLSRQAFSMVRAANFSASASSAGGGGLSDEVRKRIDGIVKKDDVVVFMKGTQQEPACGFSRNVKLVLDFHNVKFQDYNVLTDQELREGVKIFSEWPTIPQVYVKGEFVGGCDILISMHKDGEISDFLDEKGISNKYGKQ | not soluble
14 | MMRISEKGITLIKEFEGCSLKAYPDPGTGGDPWTIGYGWTHSVDGKPVKPGMMIDEATAERLLKTGLVGYENDVSRLVKVKLTQGQFDALVSFAYNLGARTLSTSTLLRKLNAGDYAGAADEFLRWNKAGSKVLNGLTRRREAERALFLS | not soluble
15 | MIYSMTAYARKEVKGNWGSAVWEIRSVNQRYLETYFRMPEQFRALEPVLRERFRKRLARGKVECSLRFEANPAAKAELSINEALATQVIKAAEQVMHMTGELSRINPFQVMQWPGVMETPEQNMDEVNKELLAAFDEAISEFIEARGREGDNMKALIEQRLDAITAEVVKVRARMPEILEWQRERLFSKFEDAKIELDASRVEQELILLAQKSDVAEELDRLDSHVKETTNILKKGGAVGRRLDFMMQEFNRESNTLASKSISTDITASGVELKVLIEQMREQIQNIE | not soluble
16 | QVQLQESGGGLVQAGGSLRLSCTASRRTGSNWCMGWFRQLAGKEPELVVALNFDYDMTYYADSVKGRFTVSRDSGKNTVYLQMNSLKPEDTAIYYCAARSGGFSSNRELYDGWGQGTQVTVSS | soluble
17 | MGSDKIHHHHHHMSNFLLEAGRQTLMLELQEASRLPERLGDDFIRAAETIIHCEGKLIVSGIGKSGHIGKKLAATFASTGTPAFFVHPAEALHGDLGMLDSRDVMLFISYSGSAKELDLIVPRLEEKGIPLLAMTGKSTSPLALAAKAVLDIAVEREACPMHLAPTSSTVNTLMLGDALAMAVMQARGFNEEDFARSHPAGALGARLLNKVHHLMRRDEEVPRVNTEANVMDAMLELSRTGLGLVAVCDEANRVQGVFTDGDLRRWLVAGGTLNDGVTRAMTRNGVTLQADSRAVEAKERLMKHKISAAPVVDENGQLVGAINLQNFYQAGIL | not soluble
18 | MGSDKIHHHHHHMARHGKGPKTNKKKLAPEKERFIQCCADITLELTDSLTSGTTREINLNGLITKYSKKYKLKQQPRLTDIINSIPDQYKKYLLPKLKAKPVRTASGIAVVAVMCKPHRCPHIAYTGNICVYCPGGPDSDFEYSTQSYTGYEPTSMRAIRARYDPYEQARGRVEQLKQLGHSIDKVEYVLMGGTFMSLPKEYREDFIVKLHNALSGFNGNDIDEAILYSQQSLTKCVGITIETRPDYCTQTHLDDMLKYGCTRLEIGVQSLYEDVARDTNRGHTVRSVCETFAVSKDAGYKVVSHMMPDLPNVGMERDIEQFKEYFENPDFRTDGLKIYPTLVIRGTGLYELWKTGRYKSYSANALVDLVARILALVPPWTRIYRVQRDIPMPLVTSGVDNGNLRELALARMKDLGTTCRDVRTREVGIQEVHHKVQPDQVELIRRDYYANGGWETFLSYEDPKKDILIGLLRLRKASKKYTYRKEFTSQRTSIVRELHVYGSVVPLHSRDPRKFQHQGFGTLLMEEAERIAKEEHGSEKISVISGVGVRNYYGKLGYELDGPYMSKRI | not soluble
